4 molecules from paper PMC5220320 (Scientific Reports, 2017) can be followed below.

Series [1] addresses T1, NDH-2 (type II NADH:quinone oxidoreductase) (Caldalkalibacillus thermarum, UniProt F5L3B8, G164E).
T1 construct: gene CathTA2_0279
T1 sequence (F5L3B8 1-399 G164E): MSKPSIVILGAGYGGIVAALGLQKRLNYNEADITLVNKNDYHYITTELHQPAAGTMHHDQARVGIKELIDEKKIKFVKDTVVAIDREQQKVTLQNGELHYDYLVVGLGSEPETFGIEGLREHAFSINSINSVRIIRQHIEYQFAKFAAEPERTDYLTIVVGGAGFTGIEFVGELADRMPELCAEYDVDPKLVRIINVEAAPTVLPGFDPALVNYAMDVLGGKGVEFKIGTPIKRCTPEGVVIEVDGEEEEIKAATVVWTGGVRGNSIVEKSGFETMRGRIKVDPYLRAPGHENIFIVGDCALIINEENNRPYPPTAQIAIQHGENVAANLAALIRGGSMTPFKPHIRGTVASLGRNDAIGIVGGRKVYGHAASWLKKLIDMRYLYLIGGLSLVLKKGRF
The experiment in a line: steady-state kinetics (KM); compromised binding, no CTC. It counts as biochemical.

For series [2], the target named is T2, NDH-2 (type II NADH:quinone oxidoreductase) (Caldalkalibacillus thermarum, UniProt F5L3B8, I379E).
T2 construct: gene CathTA2_0279
T2 sequence (F5L3B8 1-399 I379E): T1 sequence (F5L3B8 1-399 G164E)
Nature of the series: CTC formation by absorbance and stopped-flow flavin reduction. Type of series: binding.

Series [3] deals with T3, NDH-2 (type II NADH:quinone oxidoreductase) (Caldalkalibacillus thermarum, UniProt F5L3B8).
T3 construct: gene CathTA2_0279
T3 sequence (F5L3B8 1-399): T1 sequence (F5L3B8 1-399 G164E)
Nature of the series: spectroscopic titration of reduced enzyme (CTC), upper limit for KD; co-crystal structure at […] Å. Type of series: binding.

The test system of series [4] is CC1=CC(=O)c2ccccc2C1=O. Nature of the series: steady-state kinetics (KM); compromised binding. It counts as biochemical, Caldalkalibacillus thermarum. The note with it: FAD quinone-binding site; clashes with the side chain of E379.
Substrate in series [5]: CC(=O)c1ccc[n+]([C@@H]2O[C@H](COP(=O)([O-])OP(=O)(O)OC[C@H]3O[C@@H](n4cnc5c(N)ncnc54)[C@H](O)[C@@H]3O)[C@@H](O)[C@H]2O)c1
Nature of the series: purified protein. As to conditions: FAD competes with NAD+ for the reduced flavin.

Substrate in series [6]: NC(=O)C1=CN([C@@H]2O[C@H](COP(=O)(O)OP(=O)(O)OC[C@H]3O[C@@H](n4cnc5c(N)ncnc54)[C@H](O)[C@@H]3O)[C@@H](O)[C@H]2O)C=CC1
The experiment in a line: purified protein. The note with it: FAD nucleotide-binding site, nicotinamide ring juxtaposed over the flavin; E198 hydrogen bonds to the adenine ribose; F165 moves.

Substrate in series [7]: CC1=CC(=O)c2ccccc2C1=O
Nature of the series: steady-state kinetics (KM) and stopped-flow flavin reoxidation. The note with it: FAD quinone-binding site on the opposite face of the flavin to the nucleotide-binding site; I379 at the entry. It counts as biochemical, Caldalkalibacillus thermarum.

Where only a bound is given, the exact number is not on record here.

What is called Km is the concentration of substrate that gives half-maximal velocity. Turning to `NC(=O)C1=CN([C@@H]2O[C@H](COP(=O)(O)OP(=O)(O)OC[C@H]3O[C@@H](n4cnc5c(N)ncnc54)[C@H](O)[C@@H]3O)[C@@H](O)[C@H]2O)C=CC1` [NADH], the Km in series [1] was greater than 1000 µM. Besides, in series [2], the “CTC formation by absorbance and stopped-flow flavin reduction” value was “When oxidized I379E reacts with NADH, the flavin is reduced and a CTC forms, as in the WT enzyme”.
Broadly, the Kd is the concentration at which binding is half-saturated. A high value points to lower affinity. Consider `NC(=O)c1ccc[n+]([C@@H]2O[C@H](COP(=O)([O-])OP(=O)(O)OC[C@H]3O[C@@H](n4cnc5c(N)ncnc54)[C@H](O)[C@@H]3O)[C@@H](O)[C@H]2O)c1` [NAD^+], for which the Kd in series [3] was less than 2 µM.
As for “NDH-2 (type II NADH:quinone oxidoreductase) (Caldalkalibacillus thermarum TA2.A1; I379E)”, in series [4], the Km was found to be 780 µM.

B1: NDH-2 (type II NADH:quinone oxidoreductase) (Caldalkalibacillus thermarum TA2.A1) (protein)
chain: T1 sequence (F5L3B8 1-399 G164E)
In the case of B1, the Km was 7.2 µM in series [5], 29 µM in series [6] and 34 µM in series [7].
